Laboratory results published in patent US20040086848A1 (University of Texas, published 2004).

T1: endogenous RANK of RAW264.7 cells (mouse, UniProt O35305 31-625)
T1 construct: whole, on cells; Immunoprecipitated from cell lysates with anti-RANK; The species follows from the mouse cell line
T1 sequence (looked up): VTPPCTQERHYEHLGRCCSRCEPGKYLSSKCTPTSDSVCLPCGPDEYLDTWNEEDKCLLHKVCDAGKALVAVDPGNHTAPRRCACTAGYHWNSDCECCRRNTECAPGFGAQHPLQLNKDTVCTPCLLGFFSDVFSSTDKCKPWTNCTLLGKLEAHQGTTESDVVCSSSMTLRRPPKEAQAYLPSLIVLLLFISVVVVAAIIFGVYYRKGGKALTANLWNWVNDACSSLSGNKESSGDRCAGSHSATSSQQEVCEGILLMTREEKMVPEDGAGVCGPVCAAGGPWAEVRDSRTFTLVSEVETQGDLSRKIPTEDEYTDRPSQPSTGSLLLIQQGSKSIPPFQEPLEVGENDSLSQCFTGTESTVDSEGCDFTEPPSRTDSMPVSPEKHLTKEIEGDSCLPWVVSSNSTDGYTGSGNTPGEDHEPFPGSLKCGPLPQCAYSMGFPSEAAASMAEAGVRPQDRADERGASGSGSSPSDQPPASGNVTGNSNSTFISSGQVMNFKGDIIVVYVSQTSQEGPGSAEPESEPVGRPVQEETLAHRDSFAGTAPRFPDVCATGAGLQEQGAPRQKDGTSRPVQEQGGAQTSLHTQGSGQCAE


Experiments:
[1] = molecular target: the molecule itself; assay: gel filtration chromatography
[2] = molecular target: T1, endogenous RANK of RAW264.7 cells; assay: interaction with endogenous RANK in RAW cells (data not shown)

| binding result [2] | Binder | binding result [1] |
| --- | --- | --- |
| binds | RAIN mutant K90/91A (from pCMV3×FLAG-hRAIN, stably expressed in RAW cells) (other, human, UniProt Q96GX9 1-242, looked up, range 1-242; not shown: 3×FLAG tag of pCMV3×FLAG-14 at the C-terminus) MSGCDAREGDCCSRRCGAQDKEHPRYLIPELCKQFYHLGWVTGTGGGISLKHGDEIYIAPSGVQKERIQPEDMFVCDINEKDISGPSPSAALKKSQCTPLFMNAYTMRGAGAVIHTHSKAAVMATLLFPGREFKITHQEMIKGIKKCTSGGYYRYDDMLVVPIIENTPEEKDLKDRMAHAMNEYPDSCAVLVRRHGVYVWGETWEKAKTMCECYDYLFDIAVSMKKVGLDPSQLPVGENGIV | binds |
| binds | RAIN mutant R194A (from pCMV3×FLAG-hRAIN, stably expressed in RAW cells) (other, human, UniProt Q96GX9 1-242, looked up, range 1-242; not shown: 3×FLAG tag of pCMV3×FLAG-14 at the C-terminus) MSGCDAREGDCCSRRCGAQDKEHPRYLIPELCKQFYHLGWVTGTGGGISLKHGDEIYIAPSGVQKERIQPEDMFVCDINEKDISGPSPSKKLKKSQCTPLFMNAYTMRGAGAVIHTHSKAAVMATLLFPGREFKITHQEMIKGIKKCTSGGYYRYDDMLVVPIIENTPEEKDLKDRMAHAMNEYPDSCAVLVRAHGVYVWGETWEKAKTMCECYDYLFDIAVSMKKVGLDPSQLPVGENGIV | binds |
